According to patent US20150038682A1:

Target: death receptor 4 (DR4) on Ramos cells (human) (UniProt O00220)
Assay: cell-based or functional assay

B1: HuYON007 IgG1 (antibody, V domains shown)
VH: QVTLRESGPALVKPTQTLTLTCTFSGFSLSTSGMGVSWIRQPPGKALEWLAHIYWDDDKRYNPSLKSRLTISKDTSKNQVVLTMTNMDPVDTATYYCTRRGEYGNFDYWGQGTLVTVSS
VL: QTVVTQEPSFSVSPGGTVTLTCRSSSGAVTTSNFANWVQQTPGQAPRGLIGGTNNRAPGVPDRFSGSLLGNKAALTITGAQADDESDYYCALWYSNHWVFGGGTKLTVL
viability of Ramos cells at 6.2 ng/ml antibody: 100%
viability of Ramos cells at 111 ng/ml antibody (alamar Blue, overnight): 78.3%
